The DeepSol protein solubility set

Assay: soluble on expression in E. coli; label from the status in PepcDB or PDB records

| Sequence | soluble on expression in E. coli |
| --- | --- |
| MRQIVPKVVVVGAGMGGLASAIRLARAGCEVTLLEAREAPGGRMRTLPSVAGPVDAGPTVLTLREVFDDIFEVCGQKLDHHLTLLPQPLLARHWWLDGSTLDLTTDLEANVEAVAAFAGAREARAFRRFHDLSARLYDAFDRPMMRAARPDLRAIATGALKAPRTWPALLPGMTLDRLLRLFFRDRRLRQLFGRYATYVGGTPYGAPGVLALIWAAEARGVWAIEGGMHRLALALARLADDQGVRLRYGAPVARILRQGGRATGVQLADGRTLPADHIVFNGDPAALLAGCLGDGPQDAVPEDRIHPRSLSAWVWSYAARASGPPLVHHNVFFADDPRREFGPIAAGQMPEDATLYICAEDRSGGQLPDGPERFEIIMNGPPGRPAKPEDFAQCRSRTFDRLRQFGLTFDPVPGETSLTAPSGFASLFPASQGSIYGLSPHGALASLKRPLARTALPGLWLAGGGAHPGAGVPMAALSGRHAAEAILADLASRSRLEHHHHHH | not soluble |
| MSGLKLVTVLLLALCTATEAAKCRGKYMEMRGREGFVTRGGCRGLDSQIQEEYWTTVGFDGDLRDGRTTDDFLVFPANENNGHTQTNSFVGYWDMKESVNPITRSKYGENVHYEAFGHAFIKPDGKVCGWFVGSHKEVVEVCGGFRVLSRSRFNPHQPIPFEWVQGEQYRNRDVLGFHHHKIAKYEANADEVLFGDADVKGKKFNGVSINNEQRVEVDTPETFHRKVWLLRKKSTQPPSDVRAAYHHPRKLL | not soluble |
| MTDYDVLRVFCAPNGGYGNELGVVRDGSVLPEPERRQELAAKLGFSETVFVDDPERGVVDIYTPTLRLPFAGHPCVGTAWLLDVPELVTRAGVVGARLDGEFSWIEARPEWAPPRTLRQYAAVAEVDDLAVPPKGEWVYAWAWEDEAAGRVRARAFPGRDDGIDEDEATGAAALLLTGRLGRALNITQGVGSQILTAPQPEGWVEIGGRVRLERLEHHHHHH | not soluble |
| MRVGLFTDSYFPQISGVATSIRTLALELEKLGHEVFIFTTTDPNADVDHERNIIRLQSIPFVSLAERKIVLKGVFAAYLIAKEYDLDIIHTQTEFGMGILGKMVAAQLRIPVIHTLHTKYEDYVYYIAKGRLIRPSMVKYIIRNFLRGTEAIICPSEMVLETVNSYGVTLPKRVIPTGIEIDRFKRDDIEPEETAKLRVELGLAENEIMLLSLSRIAAEKNIQAVIHALPDILEEFPVKLVIVGHGPYAENLKELVKELELTDKVVFTGPVENEKTAYYYKAADFFISASTSETQGLTYLEAMAAGTRVLAAKNPYLSELINDDEFGQLFIGDDDLAEVTKKAIRDLHPIDKDKFEKKLYEISAENFAKKVYLFYIDTIIEYNNLKSIEAERFPMKMEDTIRQMPVTVKRSLKREQIRAKYFARKASKLAKNLQSYVKIDKDKEQDLEHHHHHH | soluble |
| MGSDKIHHHHHHMKVLIVGGSGGIGQAMVKQVQETYPDATVHATYRHHLPNDRQNNIQWHALDVTNEAEIKQLSEQLTELDWLINCVGILHTQDKGPEKSLQSLDIDFFQHNLTLNTLPSVMLAKHFCHALKQSDSARFAVISAKVGSITDNRLGGWYSYRASKAALNMFLKTLAIEWQRNMKHCVVLSLHPGTTDTPLSQPFQQSVPKGKLFTPEYVANCLLPIIANATPAQTGCFFAYDGTELPW | not soluble |
| MGSDKIHHHHHHMVTNVRIGAMQAYMVAEPWNTRAITGNENIGFTFAQGKEVWLGHPDRLLGVMESFIDKYPKTYRSLVKAMIEACQYCSKAENRQEVAELLTERSFTGARPKKKGAPIAKFTSPGILGNYNYGGFDGKDRTIKAADTTIFFDIPDNLPKQPGEHSTFLWRSRSIWLMTQAARWGQIKEFPKNADKLAQQGWRTDLYREIASEMGIQCPKDDYKVEPPEVFIDKKGFDPSDPVGYLNSFAIRANAPTNFFMS | not soluble |
| QYWDLRKTQQTGQCQSREDYYSAFRNEIQQSIRQSIRTDAEIMAHYSGGLDSSSIASIAALQLAKENKTLMAYTAIPKYLSGDSHRKGCKYHELDRVQSACRYYDNIETIVYQSSEDLSIFDKLQVFYPYLDQPFKAVFNMEWILAGLEMAAAKNCRILLNGEQGNGSISWKGVTLGNYLNQRVKFTRHLLKYHMKLGKQFIKSGSLNLKKNRTDLNEMKKNFLEPHYSLLRGKNRLETRSYMRSIYLWFGVEVIDPTSNLDLVQFCYDLPEWVYHGGNKYFEIRRLPKLKRRLLVRDALEGLVPPEIRHNPYRGEQAADWYYQFNKYGHAWGRLLADIAEKHPLIWEIYPKKYLLDLFANHPISPQSRNFQDVNMHLVPALSTAFFINYLNDLY | not soluble |
| MKVAIVHNSEEKSKQVTKQLTTLLEQNQIQIDNRQPELVISVGGDGTLLSAFHRFNHLLNEVSFLGVHTGHLGFYTDWRDYELKELVESLCIHREKSTSYPLLDVRIRFRDGKPDKHFLALNESTIKRGNRTMVGDVFIKDELFERFRGDGLSISTPTGSTAYNKSIGGAVLHPSINAFQLTEIASLNNRVFRTLGSPIVIAHTEWLEIKLQESDDYFVTVDQLDIYQENIASVCYRIADERIHFASYRHMHFWHRVKDAFIGED | not soluble |
| MSLNLDYTTYRIICSHPFGISRSTHTYYDIVYIYISDGEYIGRGEAAPSVRYDESTNQIITHLKSIDNIDNNLNLEEGAFWCKKNSNGISSLEAALSTAWLDLWTKKNNRRISTYFNSGKNMLYTSFTIAIGDLDLIPKKIEEAKSYNILKIKLGINEQHDKNIIKLIRKETDKIIRVDANEGWDLDTGKKMCKWLADHNVEFVEQPFKAQNLGDTAKLRDVSPLPLIADENSIKSSNIPDIAHAFDGINIKLMKCGSLFEAKKMIDLARKYDMKIMLGCMVESSIGITAMSNLSPQVDFADLDGNLLIDNDPYIGVKVVDGKLKLPSGDGLGLTLNQKYRKDFGNLKEGHHHHHH | soluble |
| MGHHHHHHSHMGITTNLISEVSKFYYALKYHAKFMSLGELGCYASHYSLWEKCIELNEAICILEDDITLKEDFKEGLDFLEKHIQELGYIRLMHLLYDASVKSEPLSHKNHEIQERVGIIKAYSEGVGTQGYVITPKIAKVFLKCSRKWVVPVDTIMDATFIHGVKNLVLQPFVIADDEQISTIARKEEPYSPKIALMRELHFKYLKYWQFV | not soluble |
| MRVITVAGPPSVGKTSVVVKTATTLAAQGHRLGIVKFDSLSTSDDQVYRRAGLPVVVGLSGNVCPDHFFVSNIDDCVDWGRTHGVDILVAESAGLCNRCSPHVQGVQAICVVDNLSGVHTPRKIGPMLKLADVVVITKGDIVSQAEREVFAYNVRLANPRAQVMQFHGITGQGASDLAARMLCAPVVDALEGRRLRFSMPSAVCPYCIGETAIGVDHQRGNVRKMSFAEPARLEHHHHHH | soluble |
| MGSDKIHHHHHHMTITESRNAAVAEIEEVIGDWAEALRRKDAARVLAHGTEDCLVFSLAPPLKASDADAGGLEQWFSTWKGPLGFTLEELDVSVSGDVAFATALTHLSGEKHDGQKAALWYRLTLGLTRTDRGWKIAHQHESVPFYMDGSFKAAIDLDPRSEVDWQAPSRPPMPGVIAYLNVEDADAAAAFYVRAFGAKEEDRKHAQDGKRLIHCHLTINGGALMLNDPFPEFGHPWKPPEGFVLHLVVDDADFWWNRAVEAGAEVTMPLEIAFWGDHYGQLRDPFGVTWGIVAPVKEGG | not soluble |
| MAPKVFYISDGTAITAEVFGHAVLSQFPLEFESLTIPFVETLAKAENVKRQINDCFITTGERPLVFHSIVKPEIRDIIYSSEGLDYDFLNTFVAPLEQHLGVSASPVLHRTHGKANQGYEARIDAINFAMDNDDGQTMKHMDQADLILLGVSRCGKTPSSLYLSMQFGIKAANYPFTEDDMDNLKLPEALKRNKKKLFGLTIDPVRLHEIRQSRMENSRYSSLKQCRLEVKEVEMMFKRERIPYIDTTNHSVEEIATKILDVTGLERHMFMAGDPLEHHHHHH | soluble |
| GPGSMEATVAPSTGLRQLRRVRRARTQYERLQRPDDIQPGYPIPSIEGWVLFFSNLPETTTQEDIANYLVSFKEGDPDYFGAITDIKIPLNADCFCAGYALVELEDRAGYERAIAELNGTVFPSADKPLVVAPTFLGEEEEQEPQAEEVAPGEKRARD | soluble |
| MGHHHHHHGGHMSLLRFLEVVSEHIKNLRNHIDLETVGEMIKLIDSARSIFVIGAGRSGYIAKAFAMRLMHLGYTVYVVGETVTPRITDQDVLVGISGSGETTSVVNISKKAKDIGSKLVAVTGKRDSSLAKMADVVMVVKGKMKQERDEILSQLAPLGTMFELTAMIFLDALVAEIMMQKHLTEKDLEARHAVLEEGGS | soluble |
| MTTNEEFIRTQIFGTVFEITNRYNDLNPVGMGAFGLVCSATDTLTSQPVAIKKIMKPFSTAVLAKRTYRELKLLKHLRHENLICLQDIFLSPLEDIYFVTELQGTDLHRLLQTRPLEKQFVQYFLYQILRGLKYVHSAGVIHRDLKPSNILINENCDLKICDFGLARIQDPQMTGYVSTRYYRAPEIMLTWQKYDVEVDIWSAGCIFAEMIEGKPLFPGKDHVHQFSIITDLLGSPPKDVINTICSENTLKFVTSLPHRDPIPFSERFKTVEPDAVDLLEKMLVFDPKKRITAADALAHPYSAPYHDPTDEPVADAKFDWHFNDADLPVDTWRVMMYSEILDFHKIGGSDGQIDISATFDDQVAAATAAAAQAQAQAQAQVQLNMAAHSHNGAGTTGNDHSDIAGGNKVSDHVAANDTITDYGNQAIQYANEFQQ | soluble |
| MKIEELIAIRRDLHRIPELGFQEFKTQQYLLNVLEQYPQDRIEIEKWRTGLFVKVNGTAPEKMLAYRADIDALSIEEQTGLPFASEHHGNMHACGHDLHMTIALGIIDHFVHHPVKHDLLFLFQPAEEGPGGAEPMLESDVLKKWQPDFITALHIAPELPVGTIATKSGLLFANTSELVIDLEGKGGHAAYPHLAEDMVVAASTLVTQLQTIISRNTDPLDSAVITVGTITGGSAQNIIAETAHLEGTIRTLSEESMKQVKERIEDVVKGIEIGFRCKGKVTYPSVYHQVYNTSGLTEEFMSFVAEHQLATVIEAKEAMTGEDFGYMLKKYPGFMFWLGADSEHGLHHAKLNPDENAIETAVHVMTGYFSVYAN | not soluble |
| MGHHHHHHSHMKTRQAFYLHTTKLTRIARRLCREILRPWHAARHPYLPINSAAIKAECTARLPEASQSPLVLKQAVRKPLEAVLRYLETHPRPPKPDPVKSVSSVLSSLTPAKVAPVINNGSPTILGKRSYEQHNGVDGNMKKRLLMPSRGTYLGLANHGQTRHMGPSRNLLLNGKSYPTKVRLIRGGSLPPVKRRRMNWIDAPDDVFYMATEETRKIRKLLSSSETKRAARRPYKPIALRQSQALPPRPPPPAPVNDEPIVIED | not soluble |
| MTRLLDATWEKELLAASARLSQAQEENFLDLVDAAEGRIDETIARVLLRTFSAKDDYGTQERVVSVLSTGADQVVIDAIVEEMPRLALEAPEWAQTLLGTEVEFRPDLTARALSQAPTICRIAAENILKNEDFQSQYPNAALVLGQLDA | not soluble |
| MSEVTDLTVIEIKPEQAPVLYVAGGLDAYLEQIRQAVNEVPDLSTKKGRDRVASLAAQVSRSKTAIEKPGREYLKRLKEAVRPAEAEIKRFVDACDELRDATRRPLTEWEAEQERIKAEEAMNALHAEALEMNIKFDQELAAKFEADHEMALLMNKDFDRDREEQRRLAEQARREHEERIKREAAEQARRDAEAKHKAEIEAAARREAEEKARAELAERQRIEAEQRAEREKKETEERARREKEEAVAAERRRQEEAEAARLVEEQRKAEEEARRAADKEHRRTVNRRVYADLIAQGIPEEYAQKAVLAIAGGKVQDAHIKY | not soluble |
